B1: T-20109 TCR (TCR, V domains shown)
V domain 1: AQKITQTQPGMFVQEKEAVTLDCTYDTSDPSYGLFWYKQPSSGEMIFLIYQGSYDQQNATEGRYSLNFQKARKSANLVISASQLGDSAMYFCAMREEYSGAGSYQLTFGKGTKLSVIP
V domain 2: EPEVTQTPSHQVTQMGQEVILRCVPISNHLYFYWYRQILGQKVEFLVSFYNNEISEKSEIFDDQFSVERPDGSNFTLKIRSTKLEDSAMYFCASSQGPYNEQFFGPGTRLTVLE
B2: T-20109 (TCR, V domains shown)
Valpha: AQKITQTQPGMFVQEKEAVTLDCTYDTSDPSYGLFWYKQPSSGEMIFLIYQGSYDQQNATEGRYSLNFQKARKSANLVISASQLGDSAMYFCAMREEYSGAGSYQLTFGKGTKLSVIP
Vbeta: EPEVTQTPSHQVTQMGQEVILRCVPISNHLYFYWYRQILGQKVEFLVSFYNNEISEKSEIFDDQFSVERPDGSNFTLKIRSTKLEDSAMYFCASSQGPYNEQFFGPGTRLTVL
B3: T-20332 (TCR, V domains shown)
Valpha: AQKITQTQPGMFVQEKEAVTLDCTYDTSDPSYGLFWYKQPSSGEMIFLIYQGSYDQQNATEGRYSLNFQKARKSANLVISASQLGDSAMYFCAMREEYSGAGSYQLTFGKGTKLSVIP
Vbeta: EPEVTQTPSHQVTQMGQEVILRCVPISNHLYFYWYRQILGQKVEFLVSFYNNEISEKSEIFDDQFSVERPDGSNFTLKIRSTKLEDSAMYFCASSRGPYNEQFFGPGTRLTVL
B4: T-20332 TCR (TCR, V domains shown)
V domain 1: AQKITQTQPGMFVQEKEAVTLDCTYDTSDPSYGLFWYKQPSSGEMIFLIYQGSYDQQNATEGRYSLNFQKARKSANLVISASQLGDSAMYFCAMREEYSGAGSYQLTFGKGTKLSVIP
V domain 2: EPEVTQTPSHQVTQMGQEVILRCVPISNHLYFYWYRQILGQKVEFLVSFYNNEISEKSEIFDDQFSVERPDGSNFTLKIRSTKLEDSAMYFCASSRGPYNEQFFGPGTRLTVLE
B5: T-7378 (TCR, V domains shown)
Valpha: AQTVTQSQPEMSVQEAETVTLSCTYDTSESDYYLFWYKQPPSRQMILVIRQEAYKQQNATENRFSVNFQKAAKSFSLKISDSQLGDAAMYFCAYRGTSGTYKYIFGTGTMLKVLA
Vbeta: DTEVTQTPKHLVMGMTNKKSLKCEQHMGHRAMYWYKQKAKKPPELMFVYSYEKLSINESVPSRFSPECPNSSLLNLHLHALQPEDSALYLCASSRGLAGPYEQYFGPGTRLTVT

How the values were obtained:
[1] = target: CD5 51-59 epitope (…, SEQ ID NO: 1) in complex with HLA-A2 (human); assay: cell-based or functional assay
[2] = target: T1, CD5 peptide on HLA-A*02:01 (human); assay: killing
T1 peptide: YLKDGWHMV

[3] = target: T2, CD5 peptide on HLA-A*02:01 (human); assay: killing
T2 peptide: SICEGTVEV

Row | Binder | Kd value from peptide titration on peptide loaded T2 cells: fold increase for RNAi-CD5 TCR T cells from HLA-A2+ donors against TCR-transduced T cells from an HLA-A2- donor [1] [fold] | binding result [2] | further results
1 | B1 | 2.24 |  | 
2 | B2 |  | recognises | 
3 | B3 |  | recognises | 
4 | B4 | 1.48 |  | 
5 | B5 |  |  | binding result [3]: recognises
